Reference: patent US12630600B2 (MEDIMMUNE LIMITED, priority 2022, dated 2026)
Starred links: 1 amine or outer side, 2 acyl side, 3 side chain; linkers in the order of their positions; H or OH if unused. Non-standard residues stand in square brackets, D forms with d. Groups on a side chain read outwards from the residue. No end group written: not given here. *: point of attachment. C20 diacid = O=C(O)CCCCCCCCCCCCCCCCCCC(=O)*; C18 diacid = O=C(O)CCCCCCCCCCCCCCCCC(=O)*; γGlu = O=C(O)[C@H](CCC(=O)[*:2])N[*:1]; αMeF = C[C@](N)(Cc1ccccc1)C(=O)O; AEEA = NCCOCCOCC(=O)O; Aib = CC(C)(N)C(=O)O

How the values were obtained:
human GLP-1 receptor = human GLP-1 receptor (human, UniProt P43220); assay: cell-based or functional assay
human glucagon receptor = human glucagon receptor (human, UniProt P47871); assay: cell-based or functional assay

Row | cAMP production EC50 (human GLP-1 receptor) [nM] | cAMP production EC50 (human glucagon receptor) [nM] | Binder
1 | 0.207 | 0.242 | H[Aib]QGTFTSDVSK[αMeF]LDTK([AEEA-AEEA-γGlu-γGlu-C20 diacid])RARDFVQWLLE[Aib]G-OH (N-terminus assumed; SMILES CC(C)C[C@H](NC(=O)[C@H](Cc1c[nH]c2ccccc12)NC(=O)[C@H](CCC(N)=O)NC(=O)[C@@H](NC(=O)[C@H](Cc1ccccc1)NC(=O)[C@H](CC(=O)O)NC(=O)[C@H](CCCNC(=N)N)NC(=O)[C@H](C)NC(=O)[C@H](CCCNC(=N)N)NC(=O)[C@H](CCCCNC(=O)COCCOCCNC(=O)COCCOCCNC(=O)CC[C@H](NC(=O)CC[C@H](NC(=O)CCCCCCCCCCCCCCCCCCC(=O)O)C(=O)O)C(=O)O)NC(=O)[C@@H](NC(=O)[C@H](CC(=O)O)NC(=O)[C@H](CC(C)C)NC(=O)[C@](C)(Cc1ccccc1)NC(=O)[C@H](CCCCN)NC(=O)[C@H](CO)NC(=O)[C@@H](NC(=O)[C@H](CC(=O)O)NC(=O)[C@H](CO)NC(=O)[C@@H](NC(=O)[C@H](Cc1ccccc1)NC(=O)[C@@H](NC(=O)CNC(=O)[C@H](CCC(N)=O)NC(=O)C(C)(C)NC(=O)[C@@H](N)Cc1c[nH]cn1)[C@@H](C)O)[C@@H](C)O)C(C)C)[C@@H](C)O)C(C)C)C(=O)N[C@@H](CC(C)C)C(=O)N[C@@H](CCC(=O)O)C(=O)NC(C)(C)C(=O)NCC(=O)O) [Peptide 449]
2 | 0.0206 | 0.0224 | H[Aib]QGTFTSDVSK[αMeF]LDKK([AEEA-AEEA-γGlu-C18 diacid])RARDFVRWLL[Aib]E-NH2 (N-terminus assumed; SMILES CC(C)C[C@H](NC(=O)[C@H](Cc1c[nH]c2ccccc12)NC(=O)[C@H](CCCNC(=N)N)NC(=O)[C@@H](NC(=O)[C@H](Cc1ccccc1)NC(=O)[C@H](CC(=O)O)NC(=O)[C@H](CCCNC(=N)N)NC(=O)[C@H](C)NC(=O)[C@H](CCCNC(=N)N)NC(=O)[C@H](CCCCNC(=O)COCCOCCNC(=O)COCCOCCNC(=O)CC[C@H](NC(=O)CCCCCCCCCCCCCCCCC(=O)O)C(=O)O)NC(=O)[C@H](CCCCN)NC(=O)[C@H](CC(=O)O)NC(=O)[C@H](CC(C)C)NC(=O)[C@](C)(Cc1ccccc1)NC(=O)[C@H](CCCCN)NC(=O)[C@H](CO)NC(=O)[C@@H](NC(=O)[C@H](CC(=O)O)NC(=O)[C@H](CO)NC(=O)[C@@H](NC(=O)[C@H](Cc1ccccc1)NC(=O)[C@@H](NC(=O)CNC(=O)[C@H](CCC(N)=O)NC(=O)C(C)(C)NC(=O)[C@@H](N)Cc1c[nH]cn1)[C@@H](C)O)[C@@H](C)O)C(C)C)C(C)C)C(=O)N[C@@H](CC(C)C)C(=O)NC(C)(C)C(=O)N[C@@H](CCC(=O)O)C(N)=O) [Peptide 443]
3 | 0.17 | 0.667 | H[Aib]QGTFTSDVSK[αMeF]LDRK([AEEA-AEEA-γGlu-γGlu-C20 diacid])RAQDFVRWLV[Aib]E-NH2 (N-terminus assumed; SMILES CC(C)C[C@H](NC(=O)[C@H](Cc1c[nH]c2ccccc12)NC(=O)[C@H](CCCNC(=N)N)NC(=O)[C@@H](NC(=O)[C@H](Cc1ccccc1)NC(=O)[C@H](CC(=O)O)NC(=O)[C@H](CCC(N)=O)NC(=O)[C@H](C)NC(=O)[C@H](CCCNC(=N)N)NC(=O)[C@H](CCCCNC(=O)COCCOCCNC(=O)COCCOCCNC(=O)CC[C@H](NC(=O)CC[C@H](NC(=O)CCCCCCCCCCCCCCCCCCC(=O)O)C(=O)O)C(=O)O)NC(=O)[C@H](CCCNC(=N)N)NC(=O)[C@H](CC(=O)O)NC(=O)[C@H](CC(C)C)NC(=O)[C@](C)(Cc1ccccc1)NC(=O)[C@H](CCCCN)NC(=O)[C@H](CO)NC(=O)[C@@H](NC(=O)[C@H](CC(=O)O)NC(=O)[C@H](CO)NC(=O)[C@@H](NC(=O)[C@H](Cc1ccccc1)NC(=O)[C@@H](NC(=O)CNC(=O)[C@H](CCC(N)=O)NC(=O)C(C)(C)NC(=O)[C@@H](N)Cc1c[nH]cn1)[C@@H](C)O)[C@@H](C)O)C(C)C)C(C)C)C(=O)N[C@H](C(=O)NC(C)(C)C(=O)N[C@@H](CCC(=O)O)C(N)=O)C(C)C) [Peptide 447]
4 | 0.0531 | 0.029 | H[Aib]QGTFTSDVSK[αMeF]LDKK([AEEA-AEEA-γGlu-γGlu-C18 diacid])RARDFVRWLL[Aib]E-OH (N-terminus assumed; SMILES CC(C)C[C@H](NC(=O)[C@H](Cc1c[nH]c2ccccc12)NC(=O)[C@H](CCCNC(=N)N)NC(=O)[C@@H](NC(=O)[C@H](Cc1ccccc1)NC(=O)[C@H](CC(=O)O)NC(=O)[C@H](CCCNC(=N)N)NC(=O)[C@H](C)NC(=O)[C@H](CCCNC(=N)N)NC(=O)[C@H](CCCCNC(=O)COCCOCCNC(=O)COCCOCCNC(=O)CC[C@H](NC(=O)CC[C@H](NC(=O)CCCCCCCCCCCCCCCCC(=O)O)C(=O)O)C(=O)O)NC(=O)[C@H](CCCCN)NC(=O)[C@H](CC(=O)O)NC(=O)[C@H](CC(C)C)NC(=O)[C@](C)(Cc1ccccc1)NC(=O)[C@H](CCCCN)NC(=O)[C@H](CO)NC(=O)[C@@H](NC(=O)[C@H](CC(=O)O)NC(=O)[C@H](CO)NC(=O)[C@@H](NC(=O)[C@H](Cc1ccccc1)NC(=O)[C@@H](NC(=O)CNC(=O)[C@H](CCC(N)=O)NC(=O)C(C)(C)NC(=O)[C@@H](N)Cc1c[nH]cn1)[C@@H](C)O)[C@@H](C)O)C(C)C)C(C)C)C(=O)N[C@@H](CC(C)C)C(=O)NC(C)(C)C(=O)N[C@@H](CCC(=O)O)C(=O)O) [Peptide 448]
5 | 0.0329 | 0.366 | H[Aib]QGTFTSDVSK[αMeF]LDRK([AEEA-AEEA-γGlu-γGlu-C18 diacid])RAQDFVRWLV[Aib]E-NH2 (N-terminus assumed; SMILES CC(C)C[C@H](NC(=O)[C@H](Cc1c[nH]c2ccccc12)NC(=O)[C@H](CCCNC(=N)N)NC(=O)[C@@H](NC(=O)[C@H](Cc1ccccc1)NC(=O)[C@H](CC(=O)O)NC(=O)[C@H](CCC(N)=O)NC(=O)[C@H](C)NC(=O)[C@H](CCCNC(=N)N)NC(=O)[C@H](CCCCNC(=O)COCCOCCNC(=O)COCCOCCNC(=O)CC[C@H](NC(=O)CC[C@H](NC(=O)CCCCCCCCCCCCCCCCC(=O)O)C(=O)O)C(=O)O)NC(=O)[C@H](CCCNC(=N)N)NC(=O)[C@H](CC(=O)O)NC(=O)[C@H](CC(C)C)NC(=O)[C@](C)(Cc1ccccc1)NC(=O)[C@H](CCCCN)NC(=O)[C@H](CO)NC(=O)[C@@H](NC(=O)[C@H](CC(=O)O)NC(=O)[C@H](CO)NC(=O)[C@@H](NC(=O)[C@H](Cc1ccccc1)NC(=O)[C@@H](NC(=O)CNC(=O)[C@H](CCC(N)=O)NC(=O)C(C)(C)NC(=O)[C@@H](N)Cc1c[nH]cn1)[C@@H](C)O)[C@@H](C)O)C(C)C)C(C)C)C(=O)N[C@H](C(=O)NC(C)(C)C(=O)N[C@@H](CCC(=O)O)C(N)=O)C(C)C) [Peptide 446]
6 | 0.033 | 0.684 | H[Aib]QGTFTSDVSK[αMeF]LETK([AEEA-AEEA-γGlu-C18 diacid])RARDFVQWLLE[Aib]G-OH [Peptide 445]
7 | 0.247 | 1.76 | H[Aib]QGTFTSDVSK[αMeF]LETK([AEEA-AEEA-γGlu-C18 diacid])RARDFVQWLLE[Aib]G-OH (not fully specified) [Peptide 444]
